Experimental data from patent US20250346630A1, “Engineering Peptides Using Peptide Epitope Linker Evolution” (AGENCY FOR SCIENCE, TECHNOLOGY AND RESEARCH, priority 2022, published 2025).
Blank lines part the entries; values can stand above or below the molecule they belong to.

What was measured:
[1] = target: T1, eIF4E eIF4G interaction site (eIF4E:4G interface) (Homo sapiens, UniProt P06730); assay: eIF4G^FAM tracer peptide competitive fluorescence anisotropy assay; conditions: non-reducing conditions, 1:1 binding model, triplicate, Kds > 20,000 denoted non-binders, read-out: Competitive Anisotropy (kd, nM) eIF4AG^FAM
T1 construct: pET11d expression plasmid containing the full-length eIF4E clone; made in house; host or cells: E. coli Rosetta pLysS

[2] = target: T2, LgBiT-eIF4E:SmBiT-VH-DIF^CAP-01 interaction (eIF4E cap-binding site) (Homo sapiens, UniProt P06730); assay: NanoBIT^CAP complementation assay in HEK293 cells; format: cell-based; conditions: HEK293 cells permeabilized with sub-CMC digitonin; read-out: IC50 for disruption of LgBiT-eIF4E with SmBiT-VH-DIF^CAP-01 interaction
T2 construct: expressed in transfected cells; host or cells: HEK293

eIF4E cap-binding site = target: T3, eIF4E cap-binding site (Homo sapiens, UniProt P06730); assay: m^7GTP^FAM competitive fluorescence anisotropy assay; conditions: read-out: Competitive Anisotropy (kd, nM) m^7GTP^FAM, non-reducing conditions, 1:1 binding model, triplicate, Kds > 20,000 denoted non-binders
T3 construct: pET11d expression plasmid containing the full-length eIF4E clone; made in house; host or cells: E. coli Rosetta pLysS

PCNA = target: T4, PCNA (Homo sapiens, UniProt P12004); assay: Anti-FLAG immunoprecipitation pull down with PCNA; format: cell-based; conditions: HEK293 cells
T4 construct: endogenous in cells; host or cells: HEK293
Experimental: Twenty-four hours prior to transfection or drugging, cells were seeded at a cell density of 1000.000 (HEK293) cells per well of a six-well plate (ThermoFisher Scientific). Transfections were performed using Lipofectamine 3000 (ThermoFisher Scientific) with either 2 μg or the indicated amount of plasmid vectors per well according to the manufacturer's instructions. After a 48-hour incubation period, the cell media was then removed and the cells washed with PBS saline. Cells were directly lysed in the wells with 300 μl of lysis buffer containing 20 mM Hepes pH 7.4, 100 mM NaCl, 5 mM MgCl2, 0.5% NP-40, 1 mM DTT, with protease (Roche) and phosphatase (Sigma-Aldrich) inhibitor cocktail sets added as outlined by the manufacturer's protocols. […] Beads were then washed four times with lysis buffer containing no protease or phosphatase inhibitors. This was then followed by the addition of Laemlee buffer (2×) and the beads boiled for 5 min at 95° C. Samples were centrifuged and the supernatant removed for western blot analysis.
Confluent HEK293FT cells were used to generate lentivirus for infection of target cells. Packaging cells were transfected using calcium phosphate transfection as described below. […]
Samples were resolved on midi or mini Tris-Glycine 4-20% gradient gels (Bio-Rad) according to the manufacturer's protocol. […] B-actin levels were measured to ensure equal loading.

eIF4E = target: T5, eIF4E (Homo sapiens, UniProt P06730); assay: Direct fluorescence anisotropy titration of eIF4E against labelled tracers; conditions: 50 nM tracer, 1:1 binding model
T5 construct: pET11d expression plasmid containing the full-length eIF4E clone; made in house; host or cells: E. coli Rosetta pLysS

full-length human eIF4E [3] = target: T6, full-length human eIF4E (human, UniProt P06730 2-217); assay: anti-FLAG immunoprecipitation from transfected HEK293 cells, western blot
T6 construct: mature; Used here for the purified full-length protein (anisotropy, ITC, crystals) and for endogenous eIF4E of HEK293 cells in pull-downs; also called cellular eIF4E

full-length human eIF4E [4] = target: T6, full-length human eIF4E; assay: competitive fluorescence anisotropy, displacement of m7GTP^FAM from eIF4E
LgBiT-eIF4E = target: T7, LgBiT-eIF4E (UniProt P06730 1-217); assay: NanoBit split-luciferase complementation in co-transfected HEK293 cells [CONT.) B]
T7 construct: Expressed in HEK293 cells; also called LgBiT fused eIF4E; not shown: LgBiT (18-kDa NanoLuc fragment, Promega NanoBit)

GST-tagged eIF4E = target: T8, GST-tagged eIF4E (UniProt P06730 1-217); assay: GST pull-down on glutathione beads with GST-eIF4E, Coomassie stained SDS-PAGE
T8 construct: also called GST-eIF4E; not shown: glutathione S-transferase tag of pGEX-6P1

[5] = target: T9, proliferating cell nuclear antigen (PCNA) (human, UniProt P12004 1-261); assay: anti-FLAG immunoprecipitation from transfected HEK293 cells, western blot
T9 construct: Used here for the purified protein (anisotropy) and for endogenous PCNA of HEK293 and A375 cells in anti-FLAG pull-downs

anti-FLAG pull down in complex with PCNA (PCNA): do not
Molecule: YVRPRLPHMSQFES [scrambled]

Kd (eIF4E): 149 nM
Molecule: m^7GTP^5-FAM [m^7GTP^FAM]

binding result (full-length human eIF4E [3]): binds
B1: VH-S4 (expressed in HEK293 cells) (designed binder)
VH: MSEVQLVESGGGLVQPGGSLRLSSAISGFSISSTSIDWVRQAPGKGLEWVARISPSSGSTSYADSVKGRFTISADTSKNTVYLQMNSLRAEDTAVYYTGRVAKALNSRSPSFVVNTYSSIGFDYRGQGTLVTVSSGAA

binding result (LgBiT-eIF4E): no binding
B4: SmBiT-VH-DIF^CAP-01 E103A (designed binder)
VH: MSEVQLVESGGGLVQPGGSLRLSSAISGFSISSTSIDWVRQAPGKGLEWVARISPSSGSTSYADSVKGRFTISADTSKNTVYLQMNSLRAEDTAVYYTGRPLPAMGFFTNIPAMVDYRGQGTLVTVSSGAA
notes: also called VH-DIF^CAP-01 EA fused to smBIT; not shown: SmBiT (11-amino-acid NanoLuc fragment)

The next lines start with the molecule.

Molecule: Cn1c[n+]([C@@H]2O[C@H](COP(=O)(O)OP(=O)([O-])O)[C@@H](O)[C@H]2O)c2nc(N)[nH]c(=O)c21 [m^7GDP]
Kd [1]: > 20000 nM
IC50 [2]: 34500 nM
Kd (eIF4E cap-binding site): 201 ± 25.2 nM

Molecule: m^7GTP^BIOTIN
Kd [1]: > 20000 nM
Kd (eIF4E cap-binding site): 34.7 ± 4 nM

B2: FLAG-tagged VH-DIF^CAP-01 MA (M104A) (expressed in HEK293 cells) (designed binder)
VH: MSEVQLVESGGGLVQPGGSLRLSSAISGFSISSTSIDWVRQAPGKGLEWVARISPSSGSTSYADSVKGRFTISADTSKNTVYLQMNSLRAEDTAVYYTGRPLPEAGFFTNIPAMVDYRGQGTLVTVSSGAA
notes: also called VH-DIF^CAP-01 mutant (M104A); VH-DIF^CAP-Cntrl; not shown: C-terminal 3x FLAG tag of the pCDNA3.1 vector
binding result (full-length human eIF4E [3]): no binding

B3: VH-DiF^CAP-01^Cntrl (purified, His-tagged) (designed binder)
VH: MSEVQLVESGGGLVQPGGSLRLSSAISGFSISSTSIDWVRQAPGKGLEWVARISPSSGSTSYADSVKGRFTISADTSKNTVYLQMNSLRAEDTAVYYTGRPLPEAGFFTNIPAMVDYRGQGTLVTVSSGAA
notes: also called VH-DIF^CAP-01 MA (M104A); not shown: C-terminal six-histidine tag from pET-22b(+)
binding result (full-length human eIF4E [4]): no binding

B5: SmBiT-VH-DIF^CAP-01 M104A (designed binder)
VH: MSEVQLVESGGGLVQPGGSLRLSSAISGFSISSTSIDWVRQAPGKGLEWVARISPSSGSTSYADSVKGRFTISADTSKNTVYLQMNSLRAEDTAVYYTGRPLPEAGFFTNIPAMVDYRGQGTLVTVSSGAA
notes: also called VH-DIF^CAP-01 MA fused to smBIT; not shown: SmBiT (11-amino-acid NanoLuc fragment)
binding result (LgBiT-eIF4E): no binding

B6: VH-1C5^Scrambled (designed binder)
VH domain, His-tagged, purified: MSEVQLVESGGGLVQPGGSLRLSSAISGFSISSTSIDWVRQAPGKGLEWVARISPSSGSTSYADSVKGRFTISADTSKNTVYLQMNSLRAEDTAVYYTGRGSVLSVAFKPSVDSFSSFYNTNDYRGQGTLVTVSSGAA
notes: CDR3 loop of VH-1C5 scrambled; also called scrambled VH domain (negative control)
binding result (GST-tagged eIF4E): no binding

B7: negative control M4 (FLAG-tagged, expressed in HEK293 cells) (designed binder)
VH: MSEVQLVESGGGLVQPGGSLRLSSAISGFSISSTSIDWVRQAPGKGLEWVARISPSSGSTSYADSVKGRFTISADTSKNTVYLQMNSLRAEDTAVYYTGRVAKALNSSSPSFVVNTYSSFGFDYRGQGTLVTVSSGAA
notes: not shown: C-terminal 3x FLAG tag of the pCDNA3.1 vector
binding result [5]: no binding
anti-FLAG pull down in complex with PCNA (PCNA): do not
